Results taken from patent US20060199780A1.

Key:
Assay in all cases: cell-based or functional assay
[1] = biological target: B7-2 (CD28 ligand) on mouse lymph node accessory cells (mouse) (UniProt P42082)
[2] = biological target: B7-1 (CD28 ligand) on mouse lymph node accessory cells (mouse) (UniProt Q00609)
[3] = biological target: Fas (human) (UniProt P25445)
UniProt P25445, sequence (P25445 26-335): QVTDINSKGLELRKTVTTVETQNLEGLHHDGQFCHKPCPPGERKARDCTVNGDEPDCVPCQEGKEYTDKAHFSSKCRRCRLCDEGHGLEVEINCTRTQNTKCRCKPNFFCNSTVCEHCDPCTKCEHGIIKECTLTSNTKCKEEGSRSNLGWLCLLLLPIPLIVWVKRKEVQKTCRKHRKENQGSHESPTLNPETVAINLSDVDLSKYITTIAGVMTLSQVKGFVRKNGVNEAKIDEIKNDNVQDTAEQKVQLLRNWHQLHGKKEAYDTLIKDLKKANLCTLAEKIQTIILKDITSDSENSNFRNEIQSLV

UniProt P42082, sequence (P42082 24-309): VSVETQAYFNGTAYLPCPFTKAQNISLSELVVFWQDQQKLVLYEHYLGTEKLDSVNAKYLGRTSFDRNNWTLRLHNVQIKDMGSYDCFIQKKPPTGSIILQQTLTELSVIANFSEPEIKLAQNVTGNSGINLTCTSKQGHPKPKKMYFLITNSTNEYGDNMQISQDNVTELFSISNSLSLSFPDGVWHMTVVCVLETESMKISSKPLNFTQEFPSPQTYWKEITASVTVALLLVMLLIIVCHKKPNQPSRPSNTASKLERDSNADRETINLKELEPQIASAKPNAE
UniProt Q00609, sequence (Q00609 38-306): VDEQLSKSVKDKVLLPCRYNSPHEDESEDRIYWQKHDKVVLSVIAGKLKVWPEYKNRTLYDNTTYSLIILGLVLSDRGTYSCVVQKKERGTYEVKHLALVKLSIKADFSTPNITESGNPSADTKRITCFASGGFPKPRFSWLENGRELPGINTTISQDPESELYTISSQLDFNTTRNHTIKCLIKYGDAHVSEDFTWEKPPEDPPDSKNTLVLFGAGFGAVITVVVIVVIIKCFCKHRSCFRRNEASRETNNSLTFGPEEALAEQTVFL

Substance	viability of the activated T cells at 72 hrs [1]	viability of the activated T cells at 72 hrs [2]	viability of Jurkat Neo control clones after Fas antibody at 10 ng/ml [3]
CTLA4Ig (from Repligen) (Fc fusion)	20%	20%	–
CH-11 anti-Fas monoclonal antibody (Panvera)	–	–	< 10%
